Source: patent US20100093634A1 (UNIVERSITY OF MARYLAND BALTIMORE, published 2010)

Assays:
[1] = biological target: N2.1/ROMK chimera with the N375PNF tract replaced with AAAA; test: cell-based or functional assay
myc-tagged ARH = biological target: T1, myc-tagged ARH (human, UniProt Q5SW96 1-308, limits assumed); test: co-immunoprecipitation from COS-7 cells
T1 construct: Expressed in COS-7 cells
T1 sequence: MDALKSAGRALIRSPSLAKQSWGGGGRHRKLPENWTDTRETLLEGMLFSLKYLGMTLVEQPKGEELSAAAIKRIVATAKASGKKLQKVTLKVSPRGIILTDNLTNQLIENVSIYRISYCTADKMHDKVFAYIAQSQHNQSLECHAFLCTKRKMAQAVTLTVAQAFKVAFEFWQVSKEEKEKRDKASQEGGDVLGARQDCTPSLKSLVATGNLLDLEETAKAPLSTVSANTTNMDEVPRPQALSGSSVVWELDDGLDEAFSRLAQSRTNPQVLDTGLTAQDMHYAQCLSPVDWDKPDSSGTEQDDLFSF
Protocol: Using immunofluorescent confocal microscopy it was determined that ARH is predominately expressed in the distal nephron, where it co-localizes with ROMK in subapical and perinuclear compartments (FIG. 2A). See Example D. It was also determined that ROMK co-immunoprecipitates with ARH on anti-ARH antibody-bound beads but not with an unrelated IgG (FIG. 2B). The specificity of the ARH-ROMK co-immunoprecipitation was corroborated by similar studies with different antibodies, HA-epitope-tagged ROMK and myc-tagged-ARH in COS-7 cells (FIGS. 2C & D). Importantly, alanine replacement of the NPNF motif in ROMK completely abrogated the ARH-ROMK co-immunoprecipitation.

“ARH co-expressed in COS-7 cells (from UniProt Q5SW96 1-308)” gave a surface expression [1] of 100%.

B1: HA-epitope-tagged mutant ROMK lacking the NPXF motif (alanine replacement of the NPNF motif) (other)
chain: MGASERSVFRVLIRALTERMFKHLRRWFITHIFGRSRQRARLVSKEGRCNIEFGNVDAQSRFIFFVDIWTTVLDLKWRYKMTVFITAFLGSWFLFGLLWYVVAYVHKDLPEFYPPDNRTPCVENINGMTSAFLFSLETQVTIGYGFRFVTEQCATAIFLLIFQSILGVIINSFMCGAILAKISRPKKRAKTITFSKNAVISKRGGKLCLLIRVANLRKSLLIGSHIYGKLLKTTITPEGETIILDQTNINFVVDAGNENLFFISPLTIYHIIDHNSPFFHMAAETLSQQDFELVVFLDGTVESTSATCQVRTSYVPEEVLWGYRFVPIVSKTKEGKYRVDFHNFGKTVEVETPHCAMCLYNEKDARARMKRGYDAAAAVLSEVDETDDTQM
notes: Expressed in COS-7 cells
B1: no binding (myc-tagged ARH).
